The chains are these.
B1: TBLR1-LgBiT wild type [not stated] / SETD5-SmBiT [not stated] (parent complex)
chain 1: MSISSDEVNFLVYRYLQESGFSHSAFTFGIESHISQSNINGALVPPAALISIIQKGLQYVEAEVSINEDGTLFDGRPIESLSLIDAVMPDVVQTRQQAYRDKLAQQQAAAAAAAAAAASQQGSAKNGENTANGEENGAHTIANNHTDMMEVDGDVEIPPNKAVVLRGHESEVFICAWNPVSDLLASGSGDSTARIWNLSENSTSGSTQLVLRHCIREGGQDVPSNKDVTSLDWNSEGTLLATGSYDGFARIWTKDGNLASTLGQHKGPIFALKWNKKGNFILSAGVDKTTIIWDAHTGEAKQQFPFHSAPALDVDWQSNNTFASCSTDMCIHVCKLGQDRPIKTFQGHTNEVNAIKWDPTGNLLASCSDDMTLKIWSMKQDNCVHDLQAHNKEIYTIKWSPTGPGTNNPNANLMLASASFDSTVRLWDVDRGICIHTLTKHQEPVYSVAFSPDGRYLASGSFDKCVHIWNTQTGALVHSYRGTGGIFEVCWNAAGDKVGASASDGSVCVLDLRK
chain 2: MSIAIPLGVTTSDTSYSDMAAGSDPESVEASPAVNEKSVYSTHNYGTTQRHGCRGLPYATIIPRSDLNGLPSPVEERCGDSPNSEGETVPTWCPCGLSQDGFLLNCDKCRGMSRGKVIRLHRRKQDNISGGDSSATESWDEELSPSTVLYTATQHTPTSITLTVRRTKPKKRKKSPEKGRAAPKTKKIKNSPSEAQNLDENTTEGWENRIRLWTDQYEEAFTNQYSADVQNALEQHLHSSKEFVGKPTILDTINKTELACNNTVIGSQMQLQLGRVTRVQKHRKILRAARDLALDTLIIEYRGKVMLRQQFEVNGHFFKKPYPFVLFYSKFNGVEMCVDARTFGNDARFIRRSCTPNAEVRHMIADGMIHLCIYAVSAITKDAEVTIAFDYEYSNCNYKVDCACHKGNRNCPIQKRNPNATELPLLPPPPSLPTIGAETRRRKARRKELEMEQQNEASEENNDQQSQEVPEKVTVSSDHEEVDNPEEKPEEEKEEVIDDQENLAHSRRTREDRKVEAIMHAFENLEKRKKRRDQPLEQSNSDVEITTTTSETPVGEETKTEAPESEVSNSVSNVTIPSTPQSVGVNTRRSSQAGDIAAEKLVPKPPPAKPSRPRPKSRISRYRTSSAQRLKRQKQANAQQAELSQAALEEGGSNSLVTPTEAGSLDSSGENRPLTGSDPTVVSITGSHVNRAASKYPKTKKYLVTEWLNDKAEKQECPVECPLRITTDPTVLATTLNMLPGLIHSPLICTTPKHYIRFGSPFIPERRRRPLLPDGTFSSCKKRWIKQALEEGMTQTSSVPQETRTQHLYQSNENSSSSSICKDNADLLSPLKKWKSRYLMEQNVTKLLRPLSPVTPPPPNSGSKSPQLATPGSSHPGEEECRNGYSLMFSPVTSLTTASRCNTPLQFELCHRKDLDLAKVGYLDSNTNSCADRPSLLNSGHSDLAPHPSLGPTSETGFPSRSGDGHQTLVRNSDQAFRTEFNLMYAYSPLNAMPRADGLYRGSPLVGDRKPLHLDGGYCSPAEGFSSRYEHGLMKDLSRGSLSPGGERACEGVPSAPQNPPQRKKVSLLEYRKRKQEAKENSAGGGGDSAQSKSKSAGAGQGSSNSVSDTGAHGVQGSSARTPSSPHKKFSPSHSSMSHLEAVSPSDSRGTSSSHCRPQENISSRWMVPTSVERLREGGSIPKVLRSSVRVAQKGEPSPTWESNITEKDSDPADGEGPETLSSALSKGATVYSPSRYSYQLLQCDSPRTESQSLLQQSSSPFRGHPTQSPGYSYRTTALRPGNPPSHGSSESSLSSTSYSSPAHPVSTDSLAPFTGTPGYFSSQPHSGNSTGSNLPRRSCPSSAASPTLQGPSDSPTSDSVSQSSTGTLSSTSFPQNSRSSLPSDLRTISLPSAGQSAVYQASRVSAVSNSQHYPHRGSGGVHQYRLQPLQGSGVKTQTGLS
B2: EGFP-ANKRD11 full length (FL), wild type [not stated] / endogenous TBLR1 of HEK293T cells and of wild-type Flp-In T-REx 293 cells [human (endogenous in HEK293T and Flp-In T-REx 293)] (parent complex)
chain 1: MPKGGCPKAPQQEELPLSSDMVEKQTGKKDKDKVSLTKTPKLERGDGGKEVRERASKRKLPFTAGANGEQKDSDTEKQGPERKRIKKEPVTRKAGLLFGMGLSGIRAGYPLSERQQVALLMQMTAEESANSPVDTTPKHPSQSTVCQKGTPNSASKTKDKVNKRNERGETRLHRAAIRGDARRIKELISEGADVNVKDFAGWTALHEACNRGYYDVAKQLLAAGAEVNTKGLDDDTPLHDAANNGHYKVVKLLLRYGGNPQQSNRKGETPLKVANSPTMVNLLLGKGTYTSSEESSTESSEEEDAPSFAPSSSVDGNNTDSEFEKGLKHKAKNPEPQKATAPVKDEYEFDEDDEQDRVPPVDDKHLLKKDYRKETKSNSFISIPKMEVKSYTKNNTIAPKKASHRILSDTSDEEDASVTVGTGEKLRLSAHTILPGSKTREPSNAKQQKEKNKVKKKRKKETKGREVRFGKRSDKFCSSESESESSESGEDDRDSLGSSGCLKGSPLVLKDPSLFSSLSASSTSSHGSSAAQKQNPSHTDQHTKHWRTDNWKTISSPAWSEVSSLSDSTRTRLTSESDYSSEGSSVESLKPVRKRQEHRKRASLSEKKSPFLSSAEGAVPKLDKEGKVVKKHKTKHKHKNKEKGQCSISQELKLKSFTYEYEDSKQKSDKAILLENDLSTENKLKVLKHDRDHFKKEEKLSKMKLEEKEWLFKDEKSLKRIKDTNKDISRSFREEKDRSNKAEKERSLKEKSPKEEKLRLYKEERKKKSKDRPSKLEKKNDLKEDKISKEKEKIFKEDKEKLKKEKVYREDSAFDEYCNKNQFLENEDTKFSLSDDQRDRWFSDLSDSSFDFKGEDSWDSPVTDYRDMKSDSVAKLILETVKEDSKERRRDSRAREKRDYREPFFRKKDRDYLDKNSEKRKEQTEKHKSVPGYLSEKDKKRRESAEAGRDRKDALESCKERRDGRAKPEEAHREELKECGCESGFKDKSDGDFGKGLEPWERHHPAREKEKKDGPDKERKEKTKPERYKEKSSDKDKSEKSILEKCQKDKEFDKCFKEKKDTKEKHKDTHGKDKERKASLDQGKEKKEKAFPGIISEDFSEKKDDKKGKEKSWYIADIFTDESEDDRDSCMGSGFKMGEASDLPRTDGLQEKEEGREAYASDRHRKSSDKQHPERQKDKEPRDRRKDRGAADAGRDKKEKVFEKHKEKKDKESTEKYKDRKDRASVDSTQDKKNKQKLPEKAEKKHAAEDKAKSKHKEKSDKEHSKERKSSRSADAEKSLLEKLEEEALHEYREDSNDKISEVSSDSFTDRGQEPGLTAFLEVSFTEPPGDDKPRESACLPEKLKEKERHRHSSSSSKKSHDRERAKKEKAEKKEKGEDYKEGGSRKDSGQYEKDFLEADAYGVSYNMKADIEDELDKTIELFSTEKKDKNDSEREPSKKIEKELKPYGSSAINILKEKKKREKHREKWRDEKERHRDRHADGLLRHHRDELLRHHRDEQKPATRDKDSPPRVLKDKSRDEGPRLGDAKLKEKFKDGAEKEKGDPVKMSNGNDKVAPSKDPGKKDARPREKLLGDGDLMMTSFERMLSQKDLEIEERHKRHKERMKQMEKLRHRSGDPKLKEKAKPADDGRKKGLDIPAKKPPGLDPPFKDKKLKESTPIPPAAENKLHPASGADSKDWLAGPHMKEVLPASPRPDQSRPTGVPTPTSVLSCPSYEEVMHTPRTPSCSADDYADLVFDCADSQHSTPVPTAPTSACSPSFFDRFSVASSGLSENASQAPARPLSTNLYRSVSVDIRRTPEEEFSVGDKLFRQQSVPAASSYDSPMPPSMEDRAPLPPVPAEKFACLSPGYYSPDYGLPSPKVDALHCPPAAVVTVTPSPEGVFSSLQAKPSPSPRAELLVPSLEGALPPDLDTSEDQQATAAIIPPEPSYLEPLDEGPFSAVITEEPVEWAHPSEQALASSLIGGTSENPVSWPVGSDLLLKSPQRFPESPKRFCPADPLHSAAPGPFSASEAPYPAPPASPAPYALPVAEPGLEDVKDGVDAVPAAISTSEAAPYAPPSGLESFFSNCKSLPEAPLDVAPEPACVAAVAQVEALGPLENSFLDGSRGLSHLGQVEPVPWADAFAGPEDDLDLGPFSLPELPLQTKDAADGEAEPVEESLAPPEEMPPGAPGVINGGDVSTVVAEEPPALPPDQASTRLPAELEPEPSGEPKLDVALEAAVEAETVPEERARGDPDSSVEPAPVPPEQRPLGSGDQGAEAEGPPAASLCAPDGPAPNTVAQAQAADGAGPEDDTEASRAAAPAEGPPGGIQPEAAEPKPTAEAPKAPRVEEIPQRMTRNRAQMLANQSKQGPPPSEKECAPTPAPVTRAKARGSEDDDAQAQHPRKRRFQRSTQQLQQQLNTSTQQTREVIQQTLAAIVDAIKLDAIEPYHSDRANPYFEYLQIRKKIEEKRKILCCITPQAPQCYAEYVTYTGSYLLDGKPLSKLHIPVIAPPPSLAEPLKELFRQQEAVRGKLRLQHSIEREKLIVSCEQEILRVHCRAARTIANQAVPFSACTMLLDSEVYNMPLESQGDENKSVRDRFNARQFISWLQDVDDKYDRMKTCLLMRQQHEAAALNAVQRMEWQLKVQELDPAGHKSLCVNEVPSFYVPMVDVNDDFVLLPA
chain 2: B1 chain 1
B3: TBLR1-LgBiT wild type [not stated] / ANKRD11-SmBiT [not stated] (parent complex)
chain 1: B1 chain 1
chain 2: B2 chain 1

The variants in the first test derive from B1. Briefly: NanoLuc complementation assay; n = 6–7 independent transfections per TBLR1 mutant; read off a plot.
In the case of chain 1 D369E, the ratio to parent is around 0.15.

chain 1 Y446D: the ratio to parent was around 1.1.

Take chain 1 Y446C: the ratio to parent was around 1.3.

For chain 1 S417R, the ratio to parent was around 0.06.

Regarding chain 1 D370N, the ratio to parent was around 0.05.

With chain 1 P444R, the ratio to parent was around 0.7.

Regarding chain 1 G460D, the ratio to parent was around 0.07.

In the case of chain 1 H213Q, the ratio to parent was around 1.2.

Regarding chain 1 S459R, the ratio to parent was around 0.06.

chain 1 F270L: the ratio to parent is around 1.8.

Take chain 1 Y245C: the ratio to parent was around 1.2.

Turning to chain 1 A311P, the ratio to parent is around 0.55.

With chain 1 H441R, the ratio to parent was around 0.55.

chain 1 L282P: the ratio to parent is around 0.05.

As to chain 1 T321S, the ratio to parent is around 1.1.

Consider chain 1 D328H, for which the ratio to parent was around 0.55.

On to chain 1 D328G, for which the ratio to parent was around 0.6.

In the case of chain 1 Y395C, the ratio to parent is around 0.87.

Variants of B1 are the subject of a further test. Briefly: co-immunoprecipitation, mass spectrometry; TBLR1-null Flp-In T-REx 293 cells; n = 3 independent transfections; read off a plot.
Regarding chain 1 D370N, the screen value is around 6.9 log2.

In another test the parent is B2. Briefly: co-immunoprecipitation, mass spectrometry; HEK293T cells; n = 3 independent transfections per mutant; read off a plot.
For the variant chain 1 L2605R, the screen value is around 8.2 log2.

In the case of chain 1 E2522K, the screen value is around 2.6 log2.

Turning to chain 1 R2523W, the screen value is around 5.7 log2.

For chain 1 S2475P, the screen value was around 8.3 log2.

Another test covers variants of B3. Briefly: NanoLuc complementation assay; n = 3–5 independent transfections per TBLR1 mutant; read off a plot.
As for chain 1 L83Q, the ratio to parent is around 0.06.

As for chain 1 G29D, the ratio to parent is around 0.06.

Regarding chain 1 F10L, the ratio to parent was around 0.1.

Turning to chain 1 G70D, the ratio to parent was around 0.07.

For the variant chain 1 E63K, the ratio to parent is around 0.37.

Variants of B3 are the subject of a further test. Briefly: co-immunoprecipitation, mass spectrometry; TBLR1-null Flp-In T-REx 293 cells; n = 3 independent transfections; read off a plot.
Consider chain 1 G70D, for which the screen value is around 1.9 log2.

Source of the values: article PMC13385800 (2026).
